Test results from patent US20130007923A1.

Legend:
[1] = biological target: BBMV proteins (brush border membrane vesicles) from fall armyworm (FAW; Spodoptera frugiperda) larval midgut (Spodoptera frugiperda); assay: heterologous competition: unlabeled Cry1Ca against 0.5 nM 125I Cry1Da (competitor pair Cry1Da/BBMV) on FAW BBMVs; reflects no displacement at Cry1Da sites, not lack of Cry1Ca binding to BBMVs
[2] = biological target: BBMV proteins (brush border membrane vesicles) from fall armyworm (FAW; Spodoptera frugiperda) larval midgut (Spodoptera frugiperda); assay: homologous competition: unlabeled Cry1Da against 0.5 nM 125I Cry1Da on FAW BBMVs

Row | Substance | IC50 [1] [nM] | IC50 [2] [nM]
1 | Cry1Ca (purified truncated Cry toxin) (from UniProt P0A376 28-618) | > 1000 | 
2 | Cry1Da (purified truncated Cry toxin) (from UniProt P19415 28-594) |  | 1.5
